The results in this text go back to US9724388B2, “FGF-18 compound dosing regimen” (MERCK PATENT GMBH, priority 2014, dated 2017).

“Also recorded” adds a separate entry of the source. Read-outs that look alike come from different tables or passages of the source.

The test system of data set [1] is medial meniscal tear in the right knee joint. It is filed as in vivo, rat. As to conditions: for overall morphology: three injections. Here is the method: After the sacrifice, the right knee was removed and decalcified in 5% formic acid for 4-6 d before cutting in half in the frontal plane and embedding in paraffin wax. Three sections were cut in 200 μm steps, stained with toluidine blue, and analyzed using ImagePro PIus™ software (Media Cybernetics). In scoring the three sections of the joint, the worst-case scenario for the two halves on each slide was determined for the cartilage lesion as the cartilage degeneration width (μm). This reflects the areas of tibial cartilage lesion in which both chondrocyte and proteoglycan loss extend ≧50% of the cartilage thickness. The measurement was taken over the area of greatest lesion severity in each of the three zones across the tibial surface.
A treatment group Mean±SE for each score and measurement was determined.
Data was analyzed using a one-way analysis of variance (1-way ANOVA) or Kruskal-Wallis test (non-parametric), along with an appropriate multiple comparison post-test. Right knee caliper measurements were compared to left using a Student's t-test. Unless indicated, Bolder BioPATH, Inc. performs statistical analysis on raw (untransformed) data only. […] Significance for all tests was set at p≦0.05. Comparisons were made between each group and the vehicle control group, as well as between pairs.
Male Lewis rats underwent surgery (under anesthesia with isoflurane) to induce a medial meniscal tear in the right knee joint. Animals were dosed IA with vehicle or FGF-18 on one of two different regimens (see table below), then terminated on day 105. Knees had caliper measurements taken at baseline and days 21, 42, 56, 84, and 105. Serum was evaluated for α2macroglobulin levels at baseline and on days 21, and 105, as well as one week after the final dose (day 42 or 84). Right knees were collected for histopathology evaluation.

Data set [2] deals with Primary articular porcine chondrocytes. Nature of the data set: Porcine chondrocyte proliferation with or without IL1α challenge. It is filed as cell-based, pig. To be noted: 100 ng/mL, 8 days. Here is the method:
Porcine chondrocytes were isolated from the cartilage of a femoral head of a pig hip (pigs were approximately one year old). After dissection of the joints, the cartilage was harvested and digested 45 minutes with collagenase 0.25% (1/10 dilution of collagenase NBG4 2.5% in HAM's F12) at room temperature. The loosened cells were discarded and the cartilage further digested overnight with collagenase 0.1% (1/25 dilution of collagenase NBG4 2.5% in HAM's F12) at 37° C. to extract the chondrocytes. For this study, the chondrocytes were cultured in monolayer.
Primary articular porcine chondrocytes were stimulated or not with 10 ng/mL IL1α and were either treated immediately or 6 hours later with anakinra 100 ng/mL and/or trFGF-18 100 ng/mL. Each condition was performed in 4 or 6-plicates. As a control, cells were also cultured with anakinra alone, trFGF-18 alone or in the absence of any treatment (medium).
Pre-culture: After cell isolation porcine chondrocytes were inoculated at 20,000 cells/cm^2 and cultivated for one week in complete HAM's F12. Cells were then harvested with accutase, counted and used as described below.
For cells treated directly with anakinra: Chondrocytes were inoculated in a 24-well plate at 15,000 cells/well in 0.5 mL of complete HAM's F12. Then 0.25 mL of trFGF-18 400 ng/mL and/or 0.25 mL of anakinra 400 ng/mL were added to the cells. In the challenged samples, 10 μL of IL1α at 1,000 ng/mL were also added to the cells. trFGF-18, anakinra and IL1α were all diluted in complete HAM's F12. The final volume in the culture well was adjusted at 1 mL with complete HAM's F12. Final concentrations were 10 ng/mL IL1α, 100 ng/mL trFGF-18 and 100 ng/mL anakinra and the total culture time was eight days. A complete medium change was performed after four days. N=4.
For cells treated with anakinra and trFGF-18 6 hours after the IL1α challenge: Chondrocytes were inoculated in a 24-well plate at 15,000 cells/well in 1 mL of complete HAM's F12 containing or not containing IL1α 10 ng/mL. After 6 hours the medium was removed and replaced with 0.25 mL trFGF-18 400 ng/mL and/or 0.25 mL of anakinra 400 ng/mL. In the challenged samples, 0.25 mL of IL1α at 40 ng/mL was also added to the cells. trFGF-18, anakinra and IL1α were all diluted in complete HAM's F12. The final volume in the culture well was adjusted at 1 mL with complete HAM's F12. Final concentrations were 10 ng/mL IL1α, 100 ng/mL trFGF-18 and 100 ng/mL anakinra and the total culture time was eight days. A complete medium change was performed after four days. N=6.
After eight days of culture, cells were harvested with accutase and resulting cell suspensions were analyzed for cell concentration and cell viability with a ViCell™ cell analyzer (from Beckman Coulter). Statistical analysis consisted in a 1-way ANOVA followed by a Dunnett post-hoc analysis.

Data set [3] has as its system rat model of OA (ACLT with tMx). Description: ACLT+tMx rat OA model, intracycle dosing frequencies of sprifermin. It is filed as in vivo. On the procedure:
The goal of this study was to evaluate the effect of different intracycle dosing frequencies of the same total dosage (3×1 μg) of sprifermin on cartilage volume in a rat model of OA. The anterior cruciate ligament transection (ACLT) with resection of the medial meniscus (tMx) was performed as disclosed in example 1. Joints from male Lister Hooded Rats (200-260 g, Charles River) were used in this study. Animals were euthanized 18 weeks post-surgery.
The changes in the joint are related to clinical assessments in OA (cartilage loss, osteophytes, subchondral sclerosis). One μg sprifermin in saline was injected three times either weekly, every 2nd, every 3rd, every 4th or every 5th week and compared to appropriate vehicle groups. Body weight, joint diameters and clinical health scores were investigated weekly.

B1: trFGF-18: recombinant truncated form of human FGF-18 (170 amino acids, SEQ ID NO: 2), produced in E. coli (protein)
chain: MEENVDFRIHVENQTRARDDVSRKQLRLYQLYSRTSGKHIQVLGRRISARGEDGDKYAQLLVETDTFGSQVRIKGKETEFYLCMNRKGKLVGKPDGTSKECVFIEKVLENNYTALMSAKYSGWYVGFTKKGRPRKGPKTRENQQDVHFMKRYPKGQPELQKPFKYTTVTK
modifications: Recombinant truncated FGF-18(trFGF-18)
Turning to B1, the “extent of injury over the tibial surface (histopathology), particularly collagen damage” value in data set [1] (10 μg IA, all regimens) is recorded as “generally increased”. Also, the “severity of injury over the tibial surface (histopathology)” value in data set [1] (10 μg IA, all regimens) was “reducing its severity”. For the same molecule, the structural benefit entry in data set [1] (bi-weekly injection scheme, 10 μg IA) is given as “provides interesting structural benefits”. The “structural benefit (joint scores, tibial cartilage degeneration width; FIGS. 3, 4, 5)” value in data set [1] (monthly injection scheme, 10 μg IA) is given as “highest”. Further, in data set [1] (rat, in vivo), the “side effects of treatment (histopathology)” value was “cartilage hypertrophy, synovitis, and synovial fibrosis”. Also, in data set [1] (rat, in vivo), the “swelling in the treated knee” value is reported as “significantly increased”. Besides, the overall morphology result is recorded as “good overall morphology” in data set [1] (once every 2 weeks (days 21, 35, 49)) and “best overall morphology” in data set [1] (once monthly (days 21, 49, 77)). For the same molecule, the entries for the “stimulation of proliferation vs control (medium, IL1α 10 ng/mL)” value in data set [2] (first experiment (direct treatment)) and in data set [2] (second experiment (6-hour delay)) were 2.38 fold and 2.44 fold, respectively. For the same molecule, the “increase in cell numbers vs control (medium, no IL1α)” value was found to be 11.25 fold in data set [2] (first experiment (direct treatment, FIG. 6A)) and 7.75 fold in data set [2] (second experiment (6-hour delay, FIG. 6B)). In data set [3] (1 μg/joint once every 3rd week, three injections, listed as rhFGF-18), the “cartilage volume on medial tibia (FIG. 9)” value was “pharmacologically meaningful and statistically significant difference over saline; also recorded: most beneficial structural outcome”. Besides, the body weight gain entry in data set [3] (3 x 1 μg intra-articular injections) is recorded as “no influence”. Further, the “cartilage denudation (stereology)” value in data set [3] (3 x 1 μg/joint) is recorded as “prevented more or less complete cartilage denudation”. Moreover, the cartilage volume result in data set [3] (all groups treated with rhFGF-18) is “higher cartilage volume values compared to placebo”. Moreover, the “AUC of joint diameters” value in data set [3] (injected every fifth week) was “the same as with saline injections”. In addition, the “joint diameters, differences between regimens” value in data set [3] (injections every 2nd, 3rd or 4th week) is listed as “No significant differences”. Besides, the “joint diameters (AUC, FIG. 8)” value in data set [3] (injections in week 3, 4 and 5 vs injections in week 3, 8 and 13) is recorded as “significantly higher”.
